Source: patent US20220348635A1, “COMPOSITIONS AND METHODS FOR NEUROLOGICAL DISEASES” (Coda Biotherapeutics, Inc., priority 2019, published 2022)
Changes are numbered by the printed parent chain. Numbers in names are those of the source.

Columns and labels:
Assay type in all cases: cell-based
[1] = YFP quench plate reader assay, response to ABT-126; settings: LX293T YFP reporter cells; for percent quench of YFP fluorescence, 50 nM abt: 50 nM ABT-126; for percent quench of YFP fluorescence, 100 nM abt: 100 nM ABT-126; for percent quench of YFP fluorescence, 300 nM abt: 300 nM ABT-126; for percent quench of YFP fluorescence, 1 uM abt: 1 uM ABT-126
Source text: (§1) FIGS. 1A-FIG. 1G show the heat maps of the percent quench of YFP fluorescence in the mutants of the engineered chimeric receptor SEQ ID NO:33 that comprise the indicated double amino acid substitutions following stimulation by various doses of either acetylcholine or the indicated non-native ligand. Ligand doses are written across the top of each chart. Numbers in the boxes indicate the absolute amount of quench observed. Dark blue=80% maximal quench of YFP reporter. Light blue=quench of 30-80%. White=10-30%. Orange=0-10% quench. Negative values represent non-responders that have a negative quench due to a stimulation artifact. SEQ ID NO:29 is a non-responding chimera used as a negative control. Abbreviations for non-native ligand names: abt: ABT-126; ach: acetylcholine; apn: APN-1125; azd: AZD-0328; brd: TC-5619; fac: RG3487; tc6: TC-6987.
(§2) Tables 2-8 below lists percent quench of YFP fluorescence following stimulation of the indicated engineered receptor by various doses of either acetylcholine or the non-native ligand.
(§3) To screen these mutant LGICs for those having novel response profiles to ligands, an anion reporter assay was developed to assess the function of channels in a high throughput format. In this assay, cells expressing a YFP reporter whose fluorescence is quenched in the presence of anion are transfected with DNA encoding the channel of interest. Upon exposure to ligand, channels that are activated will flux anion, resulting in a dose-dependent quench of the YFP that can be detected on a plate reader.
(§4) Lenti-X 293T cells (LX293T, Clontech) were maintained in DMEM containing 10% FBS and 1% penicillin/streptomycin (Invitrogen). […] Two days before assay, cells were split at a density of 20,000 cells/well in a 96-well tissue culture plate coated with poly-d lysine (Thermo Scientific). The next day, the cells were transiently transfected with 0.1 μg of DNA per well using standard Fugene protocol (Promega). On the day of assay, cells were washed 2 times in 1× extracellular solution (1×ECS: 140 mM NaCl, 5 mM KCl, 1 mM MgCl2, 2 mM CaCl2, 10 mM HEPES, 10 mM glucose, pH 7.2, mOsms 300). After the last wash, 100 μL of 1×ECS was added to the wells and the plate was incubated at 37° C. for 30 min. While incubating the plate, the drugs were diluted to a 2× concentration in 1×ECS-NaI (same components as 1×ECS except the 140 mM NaCl was replaced by 140 mM NaI). The plates were then read on a Flexstation3 (Molecular Devices). Each well, 8 wells at a time, of the plate is read for 2 min using a Flexstation3 (Molecular Devices) as follows: 1) a baseline YFP fluorescence is read for 17 sec, 2) 100 μL of ligand is added, and 3) the changes in YFP fluorescence are then measured every 1.3 sec for the remaining time.
(§5) FIG. 1 provides heat maps of the percent quench of YFP fluorescence following stimulation by various doses of either acetylcholine or the non-native ligand as indicated in the Figure. A positive fluorescence signal, as indicated by blue shaded cells, indicate that the engineered receptor is activated by the non-native ligand at that concentration. […] Table 12 lists the EC50 values for the indicated double mutants to acetylcholine (Ach) and TC-5619 as determined from the YFP fluorescence plate reader experiment.

[2] = YFP quench plate reader assay, response to APN-1125; settings: LX293T YFP reporter cells; for percent quench of YFP fluorescence, 100 nM apn: 100 nM APN-1125; for percent quench of YFP fluorescence, 1 uM apn: 1 uM APN-1125; for percent quench of YFP fluorescence, 30 uM apn: 30 uM APN-1125
Source text: as §1, §2, §3, §4, §5

[3] = YFP quench plate reader assay, response to TC-6987; settings: LX293T YFP reporter cells; for percent quench of YFP fluorescence, 1 uM tc6: 1 uM TC-6987; for percent quench of YFP fluorescence, 10 uM tc6: 10 uM TC-6987; for percent quench of YFP fluorescence, 500 uM tc6: 500 uM TC-6987
Source text: as §1, §2, §3, §4, §5

[4] = High throughput electrophysiology in HEK293T cells, AZD-0328; settings: HEK293T cells, held at −60 mV
Experimental: To confirm the EC50s determined by plate reader as well as develop a better understanding of maximum current flow, the engineered receptors were subjected to high throughput electrophysiology system, as described below. For HEK293T studies, cDNAs encoding ion channels were cloned into pcDNA3.1 using standard recombination techniques. HEK293T cells from Clontech (Lenti-X™ 293T Cell Line) were cultured in DMEM supplemented with 10% FBS and 1% Pen/Strep to 40-50% confluence using standard cell culture protocols, transfected with ion channel plasmids at a concentration of 18 μg per 15 cm dish using Fugene 6, and grown for an additional 24 hours. Cells were then assayed on a electrophysiological system (IonFluxHT and/or Mercury, Fluxion Biosciences) in which dose-response relationships may be assessed through a microfluidics-based platform for establishing whole cell configurations. Ensemble plates were primed with extracellular buffer (140 mM NaCl, 5 mM KCl, 2 mM CaCl2), 1 mM MgCl2, 10 mM HEPES, and 10 mM glucose, pH 7.2 with NaOH, mOsm 310), intracellular buffer (145 mM CsCl, 2 mM CaCl2, 2 mM MgCl2, 10 mM HEPES, and 10 mM EGTA, pH 7.2 with CsOH, mOsm 305), as adapted from Lynagh and Lynch, and test compounds (stocks prepared fresh) diluted in extracellular buffer. Cells were then released from the plate with Accutase, centrifuged, resuspended in extracellular buffer, and loaded into Ensemble plates. Cells were then subjected to a standard protocol for priming, trapping, breaking, and establishing whole cell configuration, with cells held at −60 mV throughout the recording. After recording baseline, progressive doses of test compounds were applied using the IonFlux software to assess dose response relationships. Data were then analyzed off-line using custom Python scripts to convert data to .csv format, re-plot traces, and apply QC measurements to reject unstable recordings (i.e. thresholding based on access resistance and/or standard deviation in baseline, as well as artifact rejection). Peak currents were then calculated and population data were fit using a 4-parameter logistic equation as described by the Hill Equation. Currents were measured on an automated patch clamp system (Fluxion Biosciences) following 1 second addition of drug and the EC50 values calculated are tabulated below in Table 13.

[5] = YFP quench plate reader assay, response to AZD-0328; settings: LX293T YFP reporter cells; for percent quench of YFP fluorescence, 100 nM azd: 100 nM AZD-0328; for percent quench of YFP fluorescence, 300 nM azd: 300 nM AZD-0328; for percent quench of YFP fluorescence, 30 uM azd: 30 uM AZD-0328
Source text: as §1, §2, §3, §4, §5

[6] = YFP quench plate reader assay, response to acetylcholine; settings: LX293T YFP reporter cells; for percent quench of YFP fluorescence, 10 uM ach: 10 uM acetylcholine; for percent quench of YFP fluorescence, 100 uM ach: 100 uM acetylcholine; for percent quench of YFP fluorescence, 1 mM ach: 1 mM acetylcholine; for percent quench of YFP fluorescence, 3 mM ach: 3 mM acetylcholine
Source text: as §1, §2, §3, §4, §5

[7] = YFP quench plate reader assay, response to TC-5619; settings: LX293T YFP reporter cells; for percent quench of YFP fluorescence, 1 nM brd: 1 nM TC-5619; for percent quench of YFP fluorescence, 3 nM brd: 3 nM TC-5619; for percent quench of YFP fluorescence, 10 nM brd: 10 nM TC-5619; for percent quench of YFP fluorescence, 30 nM brd: 30 nM TC-5619; for percent quench of YFP fluorescence, 100 nM brd: 100 nM TC-5619; for percent quench of YFP fluorescence, 300 nM brd: 300 nM TC-5619; for percent quench of YFP fluorescence, 1 uM brd: 1 uM TC-5619
Source text: as §1, §2, §3, §4, §5

[8] = YFP quench plate reader assay, response to RG3487; settings: LX293T YFP reporter cells; for percent quench of YFP fluorescence, 30 nM fac: 30 nM RG3487; for percent quench of YFP fluorescence, 100 nM fac: 100 nM RG3487; for percent quench of YFP fluorescence, 300 nM fac: 300 nM RG3487; for percent quench of YFP fluorescence, 10 uM fac: 10 uM RG3487; for percent quench of YFP fluorescence, 30 uM fac: 30 uM RG3487
Source text: as §1, §2, §3, §4, §5

B1: Y115D, S170T in SEQ ID NO: 33: engineered chimeric α7-nAChR/GlyRα1 LGIC receptor: SEQ ID NO: 33 with substitutions Y115D and S170T (protein)
chain: MRCSPGGVWLALAASLLHVSLQGEFQRKLYKELVKNYNPLERPVANDSQPLTVYFSLSLLQIMDVDEKNQVLTTNIWLQMSWTDHYLQWNVSEYPGVKTVRFPDGQIWKPDILLDNSADERFDATFHTNVLVNSSGHCQYLPPGIFKSSCPMDLKNFPMDVQTCKLKFGTWSYGGWSLDLQMQEADISGYIPNGEWDLVGIPGKRSERFYECCKEPYPDVTFTVTMRRRMGYYLIQMYIPSLLIVILSWISFWINMDAAPARVGLGITTVLTMTTQSSGSRASLPKVSYVKAIDIWMAVCLLFVFSALLEYAAVNFVSRQHKELLRFRRKRRHHKSPMLNLFQEDEAGEGRFNFSAYGMGPACLQAKDGISVKGANNSNTTNPPPAPSKSPEEMRKLFIQRAKKIDKISRIGFPMAFLIFNMFYWIIYKIVRREDVHNQ
modifications: synthetic sequence of chimeric LGIC
[1]
  percent quench of YFP fluorescence, 50 nM abt: −11.83%
  percent quench of YFP fluorescence, 100 nM abt: −11.5%
  percent quench of YFP fluorescence, 300 nM abt: −8.01%
  percent quench of YFP fluorescence, 1 uM abt: −9.34%
[2]
  percent quench of YFP fluorescence, 100 nM apn: −18.17%
  percent quench of YFP fluorescence, 1 uM apn: −15.2%
  percent quench of YFP fluorescence, 30 uM apn: −14%
[3]
  percent quench of YFP fluorescence, 1 uM tc6: 31.9%
  percent quench of YFP fluorescence, 10 uM tc6: 25.54%
  percent quench of YFP fluorescence, 500 uM tc6: 21.13%
[4]
  EC50 AZD-0328: no activity
[5]
  percent quench of YFP fluorescence, 100 nM azd: −0.71%
  percent quench of YFP fluorescence, 300 nM azd: −1.73%
  percent quench of YFP fluorescence, 30 uM azd: 47.39%
[6]
  percent quench of YFP fluorescence, 10 uM ach: −0.46%
  percent quench of YFP fluorescence, 100 uM ach: −4.93%
  percent quench of YFP fluorescence, 1 mM ach: −11.18%
  percent quench of YFP fluorescence, 3 mM ach: −3.53%
[7]
  percent quench of YFP fluorescence, 1 nM brd: −9.78%
  percent quench of YFP fluorescence, 3 nM brd: 12.06%
  percent quench of YFP fluorescence, 10 nM brd: −9.02%
  percent quench of YFP fluorescence, 30 nM brd: 16.3%
  percent quench of YFP fluorescence, 100 nM brd: −7.44%
  percent quench of YFP fluorescence, 300 nM brd: −10.93%
  percent quench of YFP fluorescence, 1 uM brd: −4.55%
[8]
  percent quench of YFP fluorescence, 30 nM fac: 38.08%
  percent quench of YFP fluorescence, 100 nM fac: −14.37%
  percent quench of YFP fluorescence, 300 nM fac: 19.41%
  percent quench of YFP fluorescence, 10 uM fac: 67.33%
  percent quench of YFP fluorescence, 30 uM fac: 79.67%

B2: Y115D, L131E in SEQ ID NO: 33: engineered chimeric α7-nAChR/GlyRα1 LGIC receptor: SEQ ID NO: 33 with substitutions Y115D and L131E (protein)
chain: B1 chain with L131E, T170S
modifications: synthetic sequence of chimeric LGIC
[1]
  percent quench of YFP fluorescence, 50 nM abt: −1.68%
  percent quench of YFP fluorescence, 100 nM abt: −2.25%
  percent quench of YFP fluorescence, 300 nM abt: −2.37%
  percent quench of YFP fluorescence, 1 uM abt: 3.68%
[2]
  percent quench of YFP fluorescence, 100 nM apn: −5.71%
  percent quench of YFP fluorescence, 1 uM apn: 13.03%
  percent quench of YFP fluorescence, 30 uM apn: 25.2%
[3]
  percent quench of YFP fluorescence, 1 uM tc6: 36.07%
  percent quench of YFP fluorescence, 10 uM tc6: 31.35%
  percent quench of YFP fluorescence, 500 uM tc6: 28.18%
[4]
  EC50 AZD-0328: no activity
[5]
  percent quench of YFP fluorescence, 100 nM azd: 24.49%
  percent quench of YFP fluorescence, 300 nM azd: 45.34%
  percent quench of YFP fluorescence, 30 uM azd: 71.21%
[6]
  percent quench of YFP fluorescence, 10 uM ach: 15.45%
  percent quench of YFP fluorescence, 100 uM ach: 13.77%
  percent quench of YFP fluorescence, 1 mM ach: 27.42%
  percent quench of YFP fluorescence, 3 mM ach: 53.62%
[7]
  percent quench of YFP fluorescence, 1 nM brd: −1.52%
  percent quench of YFP fluorescence, 3 nM brd: −5.35%
  percent quench of YFP fluorescence, 10 nM brd: −3.49%
  percent quench of YFP fluorescence, 30 nM brd: 2.16%
  percent quench of YFP fluorescence, 100 nM brd: 4.18%
  percent quench of YFP fluorescence, 300 nM brd: 70.2%
  percent quench of YFP fluorescence, 1 uM brd: 43.11%
[8]
  percent quench of YFP fluorescence, 30 nM fac: 45.76%
  percent quench of YFP fluorescence, 100 nM fac: 63.92%
  percent quench of YFP fluorescence, 300 nM fac: 79.43%
  percent quench of YFP fluorescence, 10 uM fac: 80.1%
  percent quench of YFP fluorescence, 30 uM fac: 84.91%
